Data reported in PMC11218540, “Influence of PepF peptidase and sporulation on microcin J25 production in Bacillus subtilis” (Microbiology Spectrum, 2024).
Bridges are numbered along the chain shown (N, C = ends). Where no end group is shown, it is not given here.

Tests used:
[1] = test system: proteases (including peptidases); details: cited from earlier work
Source text: Peptidases are important tools in the growth and metabolism of various organisms, including B. subtilis, and they are classified as exopeptidases and endopeptidases depending on the position of peptide bond cleavage ([22]). Different classes of peptidases are associated with important biological pathways. Based on similarity, PepA (yuiE) is predicted to be an aminopeptidase in B. subtilis, but its exact function has not been studied. In E. coli, PepA is a well-defined leucyl aminopeptidase with cysteinyl–glycinase activity, which involves glutathione turnover ([23]). Since glutathione is absen ...

PepF = target: T1, PepF (Bacillus subtilis, UniProt O31605); details: mature lasso peptide incubated with purified PepF 8 hours at 37°C, compared with non-peptidase-treated
T1 sequence (O31605 whole entry, looked up): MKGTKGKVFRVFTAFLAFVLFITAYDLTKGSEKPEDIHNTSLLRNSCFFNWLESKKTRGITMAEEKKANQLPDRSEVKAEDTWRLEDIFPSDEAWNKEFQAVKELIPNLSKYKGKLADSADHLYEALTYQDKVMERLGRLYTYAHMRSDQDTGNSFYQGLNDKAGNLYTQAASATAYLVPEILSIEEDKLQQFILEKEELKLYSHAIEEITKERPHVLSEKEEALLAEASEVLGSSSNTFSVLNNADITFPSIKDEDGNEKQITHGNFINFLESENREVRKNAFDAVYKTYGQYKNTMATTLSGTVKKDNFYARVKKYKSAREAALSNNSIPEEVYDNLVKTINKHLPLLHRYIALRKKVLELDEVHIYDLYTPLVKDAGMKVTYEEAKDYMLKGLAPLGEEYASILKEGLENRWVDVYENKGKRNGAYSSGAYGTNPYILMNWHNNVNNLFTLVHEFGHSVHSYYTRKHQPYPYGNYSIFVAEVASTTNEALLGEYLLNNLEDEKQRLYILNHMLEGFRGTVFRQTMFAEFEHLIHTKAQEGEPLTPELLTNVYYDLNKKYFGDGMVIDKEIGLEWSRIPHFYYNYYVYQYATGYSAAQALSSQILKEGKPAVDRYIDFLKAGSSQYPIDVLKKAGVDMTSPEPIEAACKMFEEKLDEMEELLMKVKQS
Experimental: (§1) To examine the degradation effect of these three peptidases on the lasso peptide MccJ25, we performed the enzymatic (proteolytic treatment) reaction of MccJ25 with each peptidase enzyme for 8 hours at 37°C and measured the antibacterial activity and concentration of MccJ25 in the incubation products.
(§2) To investigate whether B. subtilis peptidases play an inhibitory role in the maturation of MccJ25, we synthesized a linear peptide chain consisting of 21 amino acid residues for mimicking the MccJ25 precursor peptide. The linear peptide was incubated with PepA, PepF, and PepT, and the effects of degradation of these three peptidases on the MccJ25 precursor peptide were determined.
(§3) The MccJ25 lasso peptide was obtained by a reverse-phase solid-phase extraction method, as described in previous studies ([15]). The MccJ25 lasso peptide was examined by antimicrobial activity analysis and UPLC-QqQ mass spectrometry analysis. The antibacterial activity analysis method and UPLC-QqQ mass spectrometry analysis process for MccJ25 have been described in detail in our previous articles ([21]). […] Quantitative analysis of the MccJ25 linear/lasso peptide was performed by ultra-performance liquid chromatography coupled with triple quadrupole mass spectrometry (UPLC-QqQ, Agilent Co., USA) in the positive ion mode. All original images of SDS-PAGE and spot-on-lawn were cropped and brightness adjusted using Fireworks software (Vesion CS 6, Adobe Systems Incorporated).
(§4) The strains BL21A (BL21-DE3, pET28a-PepA), BL21F (BL21-DE3, pET28a-PepF), and BL21T (BL21-DE3, pET28a-PepT) were used to produce the peptidases PepA, PepF, and PepT, respectively, and BL21O (BL21-DE3, pET28a+) was used as a control strain. […] L-leucine-p-nitroanilide was used as the standard chromogenic substrate for aminopeptidases to identify whether these three peptidases are aminopeptidases in B. subtilis. The mixture of peptidase (10%) and L-leucine-p- nitroanilide (1 mM) was reacted in Tris-HCl buffer solution at pH = 8.5 and 50°C for 10 minutes.

PepA = PepA (Bacillus subtilis, UniProt O32106); details: 8 hours at 37°C, data not shown
Experimental: as §1, §2, §3, §4

PepT = PepT (Bacillus subtilis, UniProt P55179); details: 8 hours at 37°C, data not shown
Experimental: as §1, §2, §3, §4

[2] = at the highest concentration required to inhibit bacterial growth; cited from earlier work
Source text: Microcins are antimicrobial peptides synthesized by ribosomes and are produced by some Enterobacteriaceae species under the condition of nutrient depletion to kill or inhibit neighboring competitors ([1], [2]). Microcins are divided into two categories, namely, class I and class II, according to their molecular masses. Class I microcins have mass less than 5 kDa, while that of class II microcins is between 5 and 10 kDa ([1]). Microcin J25 (MccJ25) is a class I microcin with a unique lasso-like structure ([3][–][5]) that inhibits or kills target bacteria (primarily Gram-negative Enterobacteriac ...

[3] = spot-on-lawn assay, S. enteritidis CVCC3377

Sequence of PepA (O32106 whole entry): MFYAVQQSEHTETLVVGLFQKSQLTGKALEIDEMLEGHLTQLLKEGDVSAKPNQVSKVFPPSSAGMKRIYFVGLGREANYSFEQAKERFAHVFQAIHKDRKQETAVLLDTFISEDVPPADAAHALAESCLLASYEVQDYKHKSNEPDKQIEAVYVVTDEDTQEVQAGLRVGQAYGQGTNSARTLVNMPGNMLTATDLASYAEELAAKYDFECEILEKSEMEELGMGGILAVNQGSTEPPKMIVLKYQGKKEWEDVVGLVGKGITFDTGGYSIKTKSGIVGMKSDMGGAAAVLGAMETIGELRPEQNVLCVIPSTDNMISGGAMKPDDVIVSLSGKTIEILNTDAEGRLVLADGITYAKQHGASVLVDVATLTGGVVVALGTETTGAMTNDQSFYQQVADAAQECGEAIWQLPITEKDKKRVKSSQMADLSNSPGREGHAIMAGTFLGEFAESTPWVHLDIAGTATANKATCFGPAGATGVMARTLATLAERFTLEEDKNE
Sequence of PepT (P55179 whole entry): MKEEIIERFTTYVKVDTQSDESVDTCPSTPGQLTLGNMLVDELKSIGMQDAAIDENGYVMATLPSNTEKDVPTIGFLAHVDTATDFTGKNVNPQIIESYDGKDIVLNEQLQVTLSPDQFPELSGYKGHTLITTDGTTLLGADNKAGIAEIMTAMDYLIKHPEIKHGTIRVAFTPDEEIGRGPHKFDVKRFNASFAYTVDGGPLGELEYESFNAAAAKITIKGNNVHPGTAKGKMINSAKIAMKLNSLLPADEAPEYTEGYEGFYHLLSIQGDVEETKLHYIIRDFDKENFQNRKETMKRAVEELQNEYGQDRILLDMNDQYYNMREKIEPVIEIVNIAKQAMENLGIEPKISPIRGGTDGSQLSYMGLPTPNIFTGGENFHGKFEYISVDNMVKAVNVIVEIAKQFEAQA

microcin J25 (GGAGHVPEYFVGIGTPISFYG; lactam N-8 (inferred); UniProt Q9X2V7 38-58, looked up) [MccJ25, lasso peptide, class I microcin of 21 amino acid residues: eight-residue cycle and thirteen-residue tail threading through the macrolactam ring]
resistance to proteases (including peptidases) [1]: high resistance
concentration of MccJ25 after treatment with PepF (PepF; UPLC-QqQ-MS): unchanged
antibacterial activity of MccJ25 after treatment with PepF (PepF; spot-on-lawn assay, indicator S. enteritidis CVCC3377): unchanged
concentration of mature MccJ25 after treatment with PepA (PepA; UPLC-QqQ-MS): remained unchanged
antibacterial activity of mature MccJ25 after treatment with PepA (PepA; [3]): remained unchanged
concentration of mature MccJ25 after treatment with PepT (PepT; UPLC-QqQ-MS): remained unchanged
antibacterial activity of mature MccJ25 after treatment with PepT (PepT; [3]): remained unchanged
toxicity and hemolysis [2]: neither toxic nor hemolytic
